How the values were obtained:
OsRGA1 = biological target: T1, OsRGA1 (Oryza sativa, UniProt A2Y3B5); experiment: X-ray crystal structure, […] Å; assay type: binding; conditions: Mg2+; co-crystallised with 5 mM GDP, 4 °C; nucleotide site between Ras-like and helical domains
T1 construct: gene GPA1; full-length cDNA in pET-28a, N-terminal His6, E. coli BL21(DE3); tag cut with thrombin for crystals; four monomers in asymmetric unit, modelled within residues 39-375

[1] = biological target: SmRGS E313A (Selaginella moellendorffii); experiment: ITC; SmGPA (syringe) injected into SmRGS (cell), 10:1; 20 °C; 50 mM Tris·HCl pH 8.0, 100 mM NaCl, 5 mM MgCl2, 100 mM GDP, 30 mM AlCl3, 20 mM NaF, 2 mM TCEP, 5% glycerol (GDP·Mg2+·AlF4- form that mimics the GTP-bound form); one-site model
[2] = biological target: SmRGS N357A (Selaginella moellendorffii); experiment: as above
[3] = biological target: SmRGS E355A (Selaginella moellendorffii); experiment: as above
[4] = biological target: RGS domain of Selaginella moellendorffii RGS (SmRGS), wild-type (Selaginella moellendorffii); experiment: as above

T1 sequence (A2Y3B5 whole entry, the tested form may be a part): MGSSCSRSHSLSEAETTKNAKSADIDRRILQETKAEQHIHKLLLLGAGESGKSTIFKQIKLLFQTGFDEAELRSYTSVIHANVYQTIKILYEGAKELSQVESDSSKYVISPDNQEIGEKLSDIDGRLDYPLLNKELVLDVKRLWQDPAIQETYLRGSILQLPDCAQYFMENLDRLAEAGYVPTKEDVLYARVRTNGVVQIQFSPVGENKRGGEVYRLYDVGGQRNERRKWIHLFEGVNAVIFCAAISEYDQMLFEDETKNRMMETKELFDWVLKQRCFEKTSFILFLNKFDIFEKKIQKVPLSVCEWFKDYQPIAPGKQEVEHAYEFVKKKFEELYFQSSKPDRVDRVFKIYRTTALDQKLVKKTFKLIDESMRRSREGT

Molecule	Kd [4] [nM]	dH [4] [kcal/mol]	other results
Nc1nc2c(ncn2[C@@H]2O[C@H](COP(=O)(O)OP(=O)(O)O)[C@@H](O)[C@H]2O)c(=O)[nH]1 [GDP]	–	–	X-ray crystal structure, 2.99 Å (OsRGA1): interactions with the guanine ring and ribose of GDP are comparable to GTPγS bound in SmGPA
SmGPA D125A (natural protein)	86	-6.53	–
SmGPA E246A (natural protein)	18400	-2.73	–
SmGPA F245A (natural protein)	16900	3.1	–
SmGPA N216A (natural protein)	55	-4.81	–
SmGPA R219A (natural protein)	1960	-6.29	–

The next lines start with results.

Kd [4] [nM]	dH [4] [kcal/mol]	Molecule	other results
23	-3.07	Selaginella moellendorffii Gα (SmGPA), wild-type (natural protein)	Kd [1]: 1050 nM; dH [1]: -3.74 kcal/mol; Kd [2]: 6.77 µM; dH [2]: -4.36 kcal/mol; Kd [3]: 16 nM; dH [3]: -7.04 kcal/mol
270	-5.3	SmGPA Q214A (natural protein)	–
130	-2.89	SmGPA V189A (natural protein)	–
59	-7.45	SmGPA Y126A (natural protein)	–
